Source: US20190033295A1 (published 2019)

Target: HSP70 protein (UniProt P0DMV8 1-641)
Test: SPR

HSP70 protein, sequence (P0DMV8 whole entry): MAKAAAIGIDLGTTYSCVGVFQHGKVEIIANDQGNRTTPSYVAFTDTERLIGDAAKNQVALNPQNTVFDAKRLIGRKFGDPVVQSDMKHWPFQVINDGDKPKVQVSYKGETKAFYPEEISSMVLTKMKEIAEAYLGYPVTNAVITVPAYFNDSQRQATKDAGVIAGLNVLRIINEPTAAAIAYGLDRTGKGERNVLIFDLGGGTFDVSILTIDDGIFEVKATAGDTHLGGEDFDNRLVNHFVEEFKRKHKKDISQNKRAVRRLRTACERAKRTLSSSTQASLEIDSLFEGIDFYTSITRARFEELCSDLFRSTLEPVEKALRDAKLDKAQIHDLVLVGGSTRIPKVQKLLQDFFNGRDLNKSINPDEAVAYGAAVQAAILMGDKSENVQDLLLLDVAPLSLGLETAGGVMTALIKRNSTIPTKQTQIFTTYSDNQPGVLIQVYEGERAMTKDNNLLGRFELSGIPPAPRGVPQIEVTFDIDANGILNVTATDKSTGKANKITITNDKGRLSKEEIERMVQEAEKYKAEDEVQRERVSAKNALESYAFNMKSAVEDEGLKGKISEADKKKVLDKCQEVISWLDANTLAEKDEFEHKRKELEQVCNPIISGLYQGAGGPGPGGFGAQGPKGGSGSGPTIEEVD

Kd: 0.479 nM
B1: AIMP2-DX2 protein (other)
chain: MPMYQVKPYHGGGAPLRVELPTCMYRLPNVHGRSYGPAPGAGHVQDYGALKDIVINANPASPPLSLLVLHRLLCEHFRVLSTVHTHSSVKSVPENLLKCFGEQNKKQPRQDYQLGFTLIWKNVPKTQMKFSIQTMCPIEGEGNIARFLFSLFGQKHNAVNATLIDSWVDIAIFQLKEGSSKEKAAVFRSMNSALGKSPWLAGNELTVADVVLWSVLQQIGGCSVTVPANVQRWMRSCENLAPFNTALKLLK
